Reference: the nanobody polyreactivity screen of Harvey et al. (2022)

test: yeast display, Sf9 membrane polyspecificity reagent, FACS + sequencing; frameworks hold sequencing errors
Method in brief: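 A nanobody's polyreactivity label depends on the gate it was sorted from. Yeast display cells were stained with 10% biotinylated, detergent-solubilized Sf9 membrane reagent for 1 hour at 4 °C, enriched on streptavidin microbeads and sorted by FACS. The low and high (top ~1%) gates were set on anti-HA fluorescence for expression and streptavidin fluorescence for reagent binding.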

Sequence | polyreactivity (PSR sort gate)
QVQLVESGGGLVQAGGSLRLSCAASGSTFEYNAMGWYRQAPGKERELVASSTNYADSVKGRFTISRDNAKNTVYLQMNSLKPEDTAVYYCAREQGVNRNHDYWGQGTQGTVSS | low polyreactivity
QVQLVESGGGLVQAGGSLRLSCAASGSTFEYNAMGWYRQAPGKERELVASSTNYAEAVKGRFTISRDNAKNTVYLQMNCLKPVDTAVYYCAREQGVNRNHDYWGQGTQVTVSS | low polyreactivity
QVQLVESGGGLVQAGGSLRLSCAASGSTFEYNAMGWYRQAPGKESELVASSTNYADSVKGRFTISRDNAKNTVYFQMNSLKPEDTAVYYCSREQGVNRNHDYWGQGTQVTVSS | low polyreactivity
QVQLVESGGGLVQAGGSLRLSCAASGSTFEYNDMGWYRQAPGKERELVAAISSGGDTNYADSVKGRFTISRDNAKITVYLQMNSLKPEDTAVYYCAADDWAPYRWYYGYAGYYYWGQGTLVTVSS | low polyreactivity
QVQLVESGGGLVQAGGSLRLSCAASGSTFEYYAMGWYRQAPGKERELVAAISRTGGRTYYADSVKGRFTISRDNAKNTVYLQMNSLKPEDTAVYYCNAVTRIGGGDYDDWGQGTQVTVSS | low polyreactivity
QVQLVESGGGLVQAGGSLRLSCAASGSTFEYYVMGWYRQAPGKERELVAAISGSGGGTYYADSVKGRFTISRDNAKNTVYLQMNSLKPEDTAVYYCAAVATQEKYDYWGQGTQVTVSS | low polyreactivity
QVQLVESGGGLVQAGGSLRLSCAASGSTFFANAMGWYRQAPGKERELVAAITSGGSTYYADSVKVRFTISRDNAKNTVYLQMNSLKPEDTAVYYCAAPLCGGARWGRWWLYDSWGQGTQVNVSS | low polyreactivity
QVQLVESGGGLVQAGGSLRLSCAASGSTFFAYAMGWYRQAPGKERELVAAITGRGSTYYADSVKGRFTISRDNAKNTVYLQMNSLKPEDTAVYYCAAQRSRRYYRLDYWGQGTQVTVSS | high polyreactivity
QVQLVESGGGLVQAGGSLRLSCAASGSTFFGNAMGWYRQAPGTERELVAAIRFSGVGTYYADSVKGRFTISLDNAKNTVYLQMNSLKPEDTAVYYSAAESYYKYYWGQGTQVTVSS | low polyreactivity
QVQLVESGGGLVQAGGSLRLSCAASGSTFFHYAMGWYRQAPGKERELVAAISGSGGSTYYADSVKGRFTISRDNAKNTVYLQMNSLKPEDTAVYYCNARVWHYTSRTTFDYWGQGTQVTVSS | low polyreactivity
QVQLVESGGGLVQAGGSLRLSCAASGSTFFIYAMGWYRQAPGKERELVAAITSGGTYADSVKGRFTISRDNAKNTVYLQMNSLKPEDTAVYYCNAGNNVVVDYDYWGQGTQVTVSS | low polyreactivity
QVQLVESGGGLVQAGGSLRLSCAASGSTFFIYAMGWYRQAPGKERELVAAITWRGGTTYYADSVKGRFTISRDNAKNTVYLQMNSLKPEDTAVYYCNADPVDYANIVYYYDYNYWGQGTQVTVSS | low polyreactivity
QVQLVESGGGLVQAGGSLRLSCAASGSTFFIYTMGWYRQAPGKEREFVAAISWTGGRTYYADSVKGRFTISRDNAKYTVYLQMNSLIPEDTPVYYCAALYKYSSYDYWGQGTQVTVSS | high polyreactivity
QVQLVESGGGLVQAGGSLRLSCAASGSTFFKYAMGWYRQAPGKERELVAAISYSGGSTYYADSVKGRFTISRDNAKNTVYLQMNSLKPVDTAVYYCAARVQNRYRPYYYWGQGTQVTVSS | high polyreactivity
QVQLVESGGGLVQAGGSLRLSCAASGSTFFLYAMGWYRQAPGKERELVAAISTTGGSTNYADSVKGRFTISRDNAKNTVYLQMNSLKPEDTAVYYCAAGPSAQSIYDHWGQGTQVTVSS | low polyreactivity
QVQLVESGGGLVQAGGSLRLSCAASGSTFFLYAMGWYRQAPGKERELVASITDGGSTNYADSVKGRFTISRDNAKNTVYLQMNSLKPEDTAVYYCAKDYIHFSHKYDYWGQGTQVTVSS | low polyreactivity
QVQLVESGGGLVQAGGSLRLSCAASGSTFFLYVRGWYRQAPGKERELVAAITSGGRTYYADSVKGRFTISRDNAKNTVYLQMNSLKPEDTAVYNCAADVRRVRVGKYDYWGQGTQVTVSS | high polyreactivity
QVQLVESGGGLVQAGGSLRLSCAASGSTFFNNAMGWYRQAPGKERELVAAITGGGGRTYYADSVKGRFTISRDNAKNTVYLQMNSLKPEDTAVYYCAAVPRRSYGGYPYYYWGQGTQVTVSS | low polyreactivity
